B1: Pistol ribozyme (parent)
chain: GGGUCGUUGUUCCAUAAUCGCGUGGAUAUGGCACGCAAGUUUCUACCGGGCACCGUAAAUGUCCGACUGGAGCCGUUCGGGCGGCUAUAAACAGACCUCAGGCCCGAAGCGUGGCGGCACCUGCCGCCGGUGGUAAAAAAGAUCGGAAGAGCACACGUCU

Variants of: B1
Test: aptazyme ON/OFF ratio, guanine; higher = stronger switching; co-transcriptional cleavage with and without guanine

Row | Variant | aptazyme ON/OFF ratio
1 | GGGUCGGUGCAACAUAAUCGCGUGGAUAUGGCACGCAAGUUUCUACCGGGCACCGUAAAUGUCCGACUGGAGCCGUUCGGGCGGCUAUAAACAGACCUCAGGCCCGAAGCGUGGCGGCACCUGCCGCCGGUGGUAAAAAAGAUCGGAAGAGCACACGUCU [U7G U10C U11A C12A] | 1.18
2 | GGGUCGGUGCAUCAUAAUCGCGUGGAUAUGGCACGCAAGUUUCUACCGGGCACCGUAAAUGUCCGACUGGAGCCGUUCGGGCGGCUAUAAACAGACCUCAGGCCCGAAGCGUGGCGGCACCUGCCGCCGGUGGUAAAAAAGAUCGGAAGAGCACACGUCU [U7G U10C U11A C12U] | 1.2
3 | GGGUCGGUGCAGCAUAAUCGCGUGGAUAUGGCACGCAAGUUUCUACCGGGCACCGUAAAUGUCCGACUGGAGCCGUUCGGGCGGCUAUAAACAGACCUCAGGCCCGAAGCGUGGCGGCACCUGCCGCCGGUGGUAAAAAAGAUCGGAAGAGCACACGUCU [U7G U10C U11A C12G] | 1.18
4 | GGGUCGGUGCAUAAUAAUCGCGUGGAUAUGGCACGCAAGUUUCUACCGGGCACCGUAAAUGUCCGACUGGAGCCGUUCGGGCGGCUAUAAACAGACCUCAGGCCCGAAGCGUGGCGGCACCUGCCGCCGGUGGUAAAAAAGAUCGGAAGAGCACACGUCU [U7G U10C U11A C12U C13A] | 1.12
5 | GGGUCGGUGCAUUAUAAUCGCGUGGAUAUGGCACGCAAGUUUCUACCGGGCACCGUAAAUGUCCGACUGGAGCCGUUCGGGCGGCUAUAAACAGACCUCAGGCCCGAAGCGUGGCGGCACCUGCCGCCGGUGGUAAAAAAGAUCGGAAGAGCACACGUCU [U7G U10C U11A C12U C13U] | 1.1
6 | GGGUCGGUGCAUGAUAAUCGCGUGGAUAUGGCACGCAAGUUUCUACCGGGCACCGUAAAUGUCCGACUGGAGCCGUUCGGGCGGCUAUAAACAGACCUCAGGCCCGAAGCGUGGCGGCACCUGCCGCCGGUGGUAAAAAAGAUCGGAAGAGCACACGUCU [U7G U10C U11A C12U C13G] | 1.11
7 | GGGUCGGUGCCACAUAAUCGCGUGGAUAUGGCACGCAAGUUUCUACCGGGCACCGUAAAUGUCCGACUGGAGCCGUUCGGGCGGCUAUAAACAGACCUCAGGCCCGAAGCGUGGCGGCACCUGCCGCCGGUGGUAAAAAAGAUCGGAAGAGCACACGUCU [U7G U10C U11C C12A] | 1.1
8 | GGGUCGGUGCAAUAUAAUCGCGUGGAUAUGGCACGCAAGUUUCUACCGGGCACCGUAAAUGUCCGACUGGAGCCGUUCGGGCGGCUAUAAACAGACCUCAGGCCCGAAGCGUGGCGGCACCUGCCGCCGGUGGUAAAAAAGAUCGGAAGAGCACACGUCU [U7G U10C U11A C12A C13U] | 1.16
9 | GGGUCGGUGCAAAAUAAUCGCGUGGAUAUGGCACGCAAGUUUCUACCGGGCACCGUAAAUGUCCGACUGGAGCCGUUCGGGCGGCUAUAAACAGACCUCAGGCCCGAAGCGUGGCGGCACCUGCCGCCGGUGGUAAAAAAGAUCGGAAGAGCACACGUCU [U7G U10C U11A C12A C13A] | 1.17
10 | GGGUCGGUGCAAGAUAAUCGCGUGGAUAUGGCACGCAAGUUUCUACCGGGCACCGUAAAUGUCCGACUGGAGCCGUUCGGGCGGCUAUAAACAGACCUCAGGCCCGAAGCGUGGCGGCACCUGCCGCCGGUGGUAAAAAAGAUCGGAAGAGCACACGUCU [U7G U10C U11A C12A C13G] | 1.06
11 | GGGUCGGUGCACUAUAAUCGCGUGGAUAUGGCACGCAAGUUUCUACCGGGCACCGUAAAUGUCCGACUGGAGCCGUUCGGGCGGCUAUAAACAGACCUCAGGCCCGAAGCGUGGCGGCACCUGCCGCCGGUGGUAAAAAAGAUCGGAAGAGCACACGUCU [U7G U10C U11A C13U] | 1.16
12 | GGGUCGGUGCACGAUAAUCGCGUGGAUAUGGCACGCAAGUUUCUACCGGGCACCGUAAAUGUCCGACUGGAGCCGUUCGGGCGGCUAUAAACAGACCUCAGGCCCGAAGCGUGGCGGCACCUGCCGCCGGUGGUAAAAAAGAUCGGAAGAGCACACGUCU [U7G U10C U11A C13G] | 1.06
13 | GGGUCGGUGCACAAUAAUCGCGUGGAUAUGGCACGCAAGUUUCUACCGGGCACCGUAAAUGUCCGACUGGAGCCGUUCGGGCGGCUAUAAACAGACCUCAGGCCCGAAGCGUGGCGGCACCUGCCGCCGGUGGUAAAAAAGAUCGGAAGAGCACACGUCU [U7G U10C U11A C13A] | 1.08
14 | GGGUCGGUGCACCAUAAUCGCGUGGAUAUGGCACGCAAGUUUCUACCGGGCACCGUAAAUGUCCGACUGGAGCCGUUCGGGCGGCUAUAAACAGACCUCAGGCCCGAAGCGUGGCGGCACCUGCCGCCGGUGGUAAAAAAGAUCGGAAGAGCACACGUCU [U7G U10C U11A] | 1.32
15 | GGGUCGGUGCCCCAUAAUCGCGUGGAUAUGGCACGCAAGUUUCUACCGGGCACCGUAAAUGUCCGACUGGAGCCGUUCGGGCGGCUAUAAACAGACCUCAGGCCCGAAGCGUGGCGGCACCUGCCGCCGGUGGUAAAAAAGAUCGGAAGAGCACACGUCU [U7G U10C U11C] | 1.07
16 | GGGUCGGUGCAGGAUAAUCGCGUGGAUAUGGCACGCAAGUUUCUACCGGGCACCGUAAAUGUCCGACUGGAGCCGUUCGGGCGGCUAUAAACAGACCUCAGGCCCGAAGCGUGGCGGCACCUGCCGCCGGUGGUAAAAAAGAUCGGAAGAGCACACGUCU [U7G U10C U11A C12G C13G] | 1.11
17 | GGGUCGGUGCAGUAUAAUCGCGUGGAUAUGGCACGCAAGUUUCUACCGGGCACCGUAAAUGUCCGACUGGAGCCGUUCGGGCGGCUAUAAACAGACCUCAGGCCCGAAGCGUGGCGGCACCUGCCGCCGGUGGUAAAAAAGAUCGGAAGAGCACACGUCU [U7G U10C U11A C12G C13U] | 1.06
18 | GGGUCGGUGCAGAAUAAUCGCGUGGAUAUGGCACGCAAGUUUCUACCGGGCACCGUAAAUGUCCGACUGGAGCCGUUCGGGCGGCUAUAAACAGACCUCAGGCCCGAAGCGUGGCGGCACCUGCCGCCGGUGGUAAAAAAGAUCGGAAGAGCACACGUCU [U7G U10C U11A C12G C13A] | 1.07
